B1: CD34, component of PNAd from human tonsil (ligand, UniProt P28906 32-385, looked up)
chain: SLDNNGTATPELPTQGTFSNVSTNVSYQETTTPSTLGSTSLHPVSQHGNEATTNITETTVKFTSTSVITSVYGNTNSSVQSQTSVISTVFTTPANVSTPETTLKPSLSPGNVSDLSTTSTSLATSPTKPYTSSSPILSDIKAEIKCSGIREVKLTQGICLEQNKTSSCAEFKKDRGEGLARVLCGEEQADADAGAQVCSLLLAQSEVRPQCLLLVLANRTEISSKLQLMKKHQSDLKKLGILDFTEQDVASHQSYSQKTLIALVTSGALLAVLGITGYFLMNRRSWSPTGERLGEDPYYTENGGGQGYSSGPGTSPEAQGKASVNRGAQENGTGQATSRNGHSARQHVVADTEL
modifications: native glycoprotein carrying the MECA-79 epitope

Legend:
[1] = biological target: T1, CD4/IgG chimera (entire extracellular domain of human CD4 fused to the Fc domain of human IgG1) (human, UniProt P01730 26-396); test: precipitation of PNAd with the IgG chimera (CD34 as a named component of PNAd)
T1 construct: extracellular domain; Control chimera; also called control CD4/IgG chimera; not shown: Fc domain of human IgG1

[2] = biological target: B1; test: precipitation of PNAd with the L-selectin/IgG chimera, elution with EDTA

| Binder | binding result [1] | binding result [2] |
| --- | --- | --- |
| B1 | no binding | – |
| L-selectin/IgG chimera (entire extracellular domain of murine L-selectin fused to the Fc domain of human IgG1) (Fc fusion, UniProt P18337 39-332, looked up, extracellular domain; From supernatants of transfected 293 cells, protein-A purified; also called recombinant L-selectin/IgG chimera; not shown: Fc domain of human IgG1) WTYHYSEKPMNWENARKFCKQNYTDLVAIQNKREIEYLENTLPKSPYYYWIGIRKIGKMWTWVGTNKTLTKEAENWGAGEPNNKKSKEDCVEIYIKRERDSGKWNDDACHKRKAALCYTASCQPGSCNGRGECVETINNHTCICDAGYYGPQCQYVVQCEPLEAPELGTMDCIHPLGNFSFQSKCAFNCSEGRELLGTAETQCGASGNWSSPEPICQVVQCEPLEAPELGTMDCIHPLGNFSFQSKCAFNCSEGRELLGTAETQCGASGNWSSPEPICQETNRSFSKIKEGDYN | – | binds |

— patent US20020025923A1 (University of California, published 2002)
